In PMC4137731, “C-Terminal Domain Swapping of SSB Changes the Size of the ssDNA Binding Site”:

How the values were obtained:
Conditions in all cases: protein: recombinant; tags: none (untagged); chain copies: 4; label: 5' 32P
PaSSB [1] = target: T1, PaSSB (Pseudomonas aeruginosa PAO1, UniProt P40947 1-165); assay: EMSA; monomer conc.; 2 complexes; 20 mM Tris-HCl pH 8.0, 100 mM NaCl, 25°C 30 min, 1.7 nM DNA, protein 0-5000 nM; native 8% PAGE in TBE at 4°C
StSSB [2] = target: T2, StSSB (Salmonella enterica serovar Typhimurium …, UniProt P0A2F6 1-176); assay: EMSA; monomer conc.; 1 complex; 20 mM Tris-HCl pH 8.0, 100 mM NaCl, 25°C 30 min, 1.7 nM DNA, protein 0-5000 nM; native 8% PAGE in TBE at 4°C
PaSSB [3] = target: T1, PaSSB; assay: as above
KpSSB [4] = target: T3, KpSSB (Klebsiella pneumoniae subsp. pneumoniae …, UniProt A6TGW7 1-174); assay: as above
KpSSB [5] = target: T3, KpSSB; assay: EMSA; monomer conc.; 2 complexes; 20 mM Tris-HCl pH 8.0, 100 mM NaCl, 25°C 30 min, 1.7 nM DNA, protein 0-5000 nM; native 8% PAGE in TBE at 4°C
StSSB [6] = target: T2, StSSB; assay: as above
KpSSB [7] = target: T3, KpSSB; assay: EMSA; no band shift up to 5000 nM; 20 mM Tris-HCl pH 8.0, 100 mM NaCl, 25°C 30 min, 1.7 nM DNA, protein 0-5000 nM; native 8% PAGE in TBE at 4°C

B1: dT65 (ssDNA)
DNA: TTTTTTTTTTTTTTTTTTTTTTTTTTTTTTTTTTTTTTTTTTTTTTTTTTTTTTTTTTTTTTTTT
In the case of B1, the “apparent K (half saturation)” value (PaSSB [1]) is reported as 550 ± 70 nM.

For TTTTTTTTTTTTTTTTTTTTTTTTTTTTTT (ssDNA) [dT30], the “apparent K (half saturation)” value (StSSB [2]) was 420 ± 60 nM.

In the case of TTTTTTTTTTTTTTTTTTTTTTTTT (ssDNA) [dT25], the “apparent K (half saturation)” value (PaSSB [3]) is reported as 1700 ± 250 nM and the “apparent K (half saturation)” value (KpSSB [4]) is reported as 200 ± 20 nM.

B2: dT55 (ssDNA)
DNA: TTTTTTTTTTTTTTTTTTTTTTTTTTTTTTTTTTTTTTTTTTTTTTTTTTTTTTT
In the case of B2, the “apparent K (half saturation)” value (KpSSB [5]) is reported as 100 ± 20 nM and the “apparent K (half saturation)” value (PaSSB [3]) is reported as 820 ± 90 nM.

TTTTTTTTTTTTTTTTTTTTTTTTTTTTTTTTTTTTTTTTTTTTTTTTTT (ssDNA) [dT50] was tested, and the “apparent K (half saturation)” value (StSSB [6]) was 440 ± 50 nM and the “apparent K (half saturation)” value (KpSSB [4]) was 110 ± 20 nM.

TTTTTTTTTTTTTTTTTTTTTTTTTTTTTTTTTTTTTTTTTTTTT (ssDNA) [dT45] was tested, and the “apparent K (half saturation)” value (StSSB [6]) was 440 ± 60 nM, the “apparent K (half saturation)” value (PaSSB [3]) was 780 ± 160 nM and the “apparent K (half saturation)” value (KpSSB [4]) was 100 ± 10 nM.

With TTTTTTTTTTTTTTTTTTTTTTTTTTTTTTTTTTT (ssDNA) [dT35] the “apparent K (half saturation)” value (PaSSB [3]) was 950 ± 180 nM and the “apparent K (half saturation)” value (KpSSB [4]) was 220 ± 30 nM.

In the case of TTTTTTTTTTTTTTTTTTTTTTTTTTTTTTTTTTTTTTTT (ssDNA) [dT40], the “apparent K (half saturation)” value (StSSB [2]) is reported as 420 ± 80 nM.

For TTTTTTTTTTTTTTTTTTTT (ssDNA) [dT20], the “apparent K (half saturation)” value (StSSB [2]) was 450 ± 80 nM and the binding result (KpSSB [7]) was “no binding”.

B3: dT60 (ssDNA)
DNA: TTTTTTTTTTTTTTTTTTTTTTTTTTTTTTTTTTTTTTTTTTTTTTTTTTTTTTTTTTTT
In the case of B3, the “apparent K (half saturation)” value (PaSSB [1]) is reported as 810 ± 110 nM and the “apparent K (half saturation)” value (KpSSB [5]) is reported as 100 ± 10 nM.

For TTTTTTTTTTTTTTT (ssDNA) [dT15], the “apparent K (half saturation)” value (StSSB [2]) was 650 ± 120 nM.
